Measurements published in US20250059241A1 (SYNGENTA CROP PROTECTION, published 2025).

Experiments:
[1] = target: SMALP-Sf-ABCC2-FLAG (Sf-ABCC2 extracted from silkworm pupae membranes with styrene maleic acid and affinity purified) (Spodoptera frugiperda); assay: immuno-magnetic separation with SMALP-Sf-ABCC2 and anti-FLAG magnetic beads; colonies on LB-tet
[2] = target: T1, Spore-Cry1Fa (Bacillus subtilis spores displaying the Bacillus thuringiensis Cry1Fa protein as a … (Bacillus thuringiensis, UniProt Q03746 1-615)); assay: microscopy of spores on Sf9 cells expressing Sf-ABCC2
T1 construct: vector pSB634 or pHY300PLK
T1 sequence: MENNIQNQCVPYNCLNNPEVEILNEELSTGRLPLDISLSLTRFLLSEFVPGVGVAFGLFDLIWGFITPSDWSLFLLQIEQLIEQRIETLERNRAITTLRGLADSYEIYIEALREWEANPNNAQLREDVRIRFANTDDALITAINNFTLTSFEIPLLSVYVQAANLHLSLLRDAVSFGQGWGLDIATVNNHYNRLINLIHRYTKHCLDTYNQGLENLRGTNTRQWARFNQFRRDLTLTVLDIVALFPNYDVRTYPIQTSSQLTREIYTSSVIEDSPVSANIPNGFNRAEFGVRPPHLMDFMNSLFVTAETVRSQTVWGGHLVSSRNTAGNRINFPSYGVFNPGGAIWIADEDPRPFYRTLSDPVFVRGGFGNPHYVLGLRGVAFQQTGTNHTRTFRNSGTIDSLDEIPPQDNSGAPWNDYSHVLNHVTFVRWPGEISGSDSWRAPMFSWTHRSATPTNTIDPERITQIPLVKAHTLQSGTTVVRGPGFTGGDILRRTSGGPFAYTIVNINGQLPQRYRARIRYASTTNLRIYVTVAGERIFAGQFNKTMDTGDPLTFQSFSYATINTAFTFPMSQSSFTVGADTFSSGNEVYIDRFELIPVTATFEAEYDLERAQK

[3] = target: T1, Spore-Cry1Fa (Bacillus subtilis spores …); assay: immuno-magnetic separation with anti-FLAG magnetic beads
[4] = target: T2, Spore-Cry1Aa (Bacillus subtilis spores displaying the Bacillus thuringiensis Cry1Aa protein as a … (Bacillus thuringiensis, UniProt P0A366 1-621)); assay: flow cytometry of spores labelled with Bm-ABCC2, anti-FLAG mouse antibody and Alexa-labelled anti-mouse IgG, after a wash with 0.2% SDS
T2 construct: vector pSB634 or pHY300PLK

Molecule: Spore-pSB634 (Bacillus subtilis spores carrying the empty vector pSB634, no Cry protein displayed)
- spores (colonies) pulled out by the magnetic beads from 10^6 spores (spores (colonies)) [1]: 9

B1: Sf-ABCC2 (Spodoptera frugiperda ABC transporter subfamily C type 2, C-terminal FLAG tag) expressed on Sf9 cells (receptor)
chain: MDKSNKNTAANGNGGQRAGEPKKRVRKKPNILSRIFVWWIFPVLITGNKRDVEEDDLIVPSKKFNSERQGEYFERYWFEEVAIAEREDRDPSLWKAMRRAYWLQYMPGAIFVLLISGLRTAQPLLFSQLLSYWSVDSEMSQQDAGLYALAMLGINFITMMCTHHNNLFVMRFSMKVKIAASSLLFRKLLRMSQVSVGDVAGGKLVNLLSNDVARFDYAFMFLHYLWVVPLQVGVVLYFVYDAAGWAPYVGLFGVIILIMPLQAGLTKLTGVVRRMTAKRTDKRIKLMSEIINGIQVIKMYAWEKPFQLVVKAARAYEMSALRKSIFIRSMFLGFMLFTERSVMFLTVLTLALTGNMISATLIYPIQQYFGIITMNVTLILPMAFASFSEMLISLERIQGFLLLDERSDIQITPKVVNGAGSKLFNNSKKEGGLETGIVLPTKYSPTEASIARPVQDEPNMADYPVQLNKVNATWADLNDNKEMTLKNISLRVRKNKLCAVIGPVGSGKTSLLQLLLRELPVTSGNLSISGTVSYASQEPWLFPATVRENILFGLEYNVAKYKEVCKVCSLLPDFKQFPYGDLSLVGERGVSLSGGQRARINLARAVYREADIYLLDDPLSAVDANVGRQLFDGCIKGYLSGKTCILVTHQIHYLKAADFIVVLNEGSVENMGSYDELMKTGTEFSMLLSDQASEGSDTDKKERPAMMQGISKMSVKSDDEEGEEKVQVLEAEERQSGSLKWDVLGRYMKSVNSWCMVVMAFLVLVITQGAATTTDYWLSFWTNQVDGYIQTLPEGESPNPELDTQVGLLTTGQYLIVHGSVVLAIIILTQVRILSFVVMTMRASENLHNTIYEKLIVAVMRFFDTNPSGRVLNRFSKDMGAMDELLPRSMLETVQMYLSLASVLVLNAIALPWTLIPTTVLMFIFVFLLKWYINAAQAVKRLEGTTKSPVFGMINSTISGLSTIRSSNSQDRLLNSFDDAQNLHTSAFYTFLGGSTAFGLYLDTLCLIYLGIIMSIFILGDFGELIPVGSVGLAVSQSMVLTMMLQMAAKFTADFLGQMTAVERVLEYTKLPTEENMETGPTTPPKGWPSAGEVTFSNVYLKYSPDDPPVLKDLNFAIKSGWKVGVVGRTGAGKSSLISALFRLSDITGSIKIDGLDTQGIAKKLLRSKISIIPQEPVLFSASLRYNLDPFDNYNDEDIWRALEQVELKESIPALDYKVSEGGTNFSMGQRQLVCLARAILRSNKILIMDEATANVDPQTDALIQKTIRKQFANCTVLTIAHRLNTIMDSDRVLVMDQGVAAEFDHPYILLSNPNSKFSSMVKETGDNMSRILFEVAKTKYESDSKTADYKDDDDK
notes: Expressed in Sf9 cells by baculovirus together with EGFP; also called Sf9::Sf-ABCC2; Sf9 expressing Sf-ABCC2
- binding result [2]: binds

B2: SMALP-Sf-ABCC2-FLAG (Sf-ABCC2 extracted from silkworm pupae membranes with styrene maleic acid and affinity purified) (receptor)
chain: MDKSNKNTAANGNGGQRAGEPKKRVRKKPNILSRIFVWWIFPVLITGNKRDVEEDDLIVPSKKFNSERQGEYFERYWFEEVAIAEREDRDPSLWKAMRRAYWLQYMPGAIFVLLISGLRTAQPLLFSQLLSYWSVDSEMSQQDAGLYALAMLGINFITMMCTHHNNLFVMRFSMKVKIAASSLLFRKLLRMSQVSVGDVAGGKLVNLLSNDVARFDYAFMFLHYLWVVPLQVGVVLYFVYDAAGWAPYVGLFGVIILIMPLQAGLTKLTGVVRRMTAKRTDKRIKLMSEIINGIQVIKMYAWEKPFQLVVKAARAYEMSALRKSIFIRSMFLGFMLFTERSVMFLTVLTLALTGNMISATLIYPIQQYFGIITMNVTLILPMAFASFSEMLISLERIQGFLLLDERSDIQITPKVVNGAGSKLFNNSKKEGGLETGIVLPTKYSPTEASIARPVQDEPNMADYPVQLNKVNATWADLNDNKEMTLKNISLRVRKNKLCAVIGPVGSGKTSLLQLLLRELPVTSGNLSISGTVSYASQEPWLFPATVRENILFGLEYNVAKYKEVCKVCSLLPDFKQFPYGDLSLVGERGVSLSGGQRARINLARAVYREADIYLLDDPLSAVDANVGRQLFDGCIKGYLSGKTCILVTHQIHYLKAADFIVVLNEGSVENMGSYDELMKTGTEFSMLLSDQASEGSDTDKKERPAMMQGISKMSVKSDDEEGEEKVQVLEAEERQSGSLKWDVLGRYMKSVNSWCMVVMAFLVLVITQGAATTTDYWLSFWTNQVDGYIQTLPEGESPNPELDTQVGLLTTGQYLIVHGSVVLAIIILTQVRILSFVVMTMRASENLHNTIYEKLIVAVMRFFDTNPSGRVLNRFSKDMGAMDELLPRSMLETVQMYLSLASVLVLNAIALPWTLIPTTVLMFIFVFLLKWYINAAQAVKRLEGTTKSPVFGMINSTISGLSTIRSSNSQDRLLNSFDDAQNLHTSAFYTFLGGSTAFGLYLDTLCLIYLGIIMSIFILGDFGELIPVGSVGLAVSQSMVLTMMLQMAAKFTADFLGQMTAVERVLEYTKLPTEENMETGPTTPPKGWPSAGEVTFSNVYLKYSPDDPPVLKDLNFAIKSGWKVGVVGRTGAGKSSLISALFRLSDITGSIKIDGLDTQGIAKKLLRSKISIIPQEPVLFSASLRYNLDPFDNYNDEDIWRALEQVELKESIPALDYKVSEGGTNFSMGQRQLVCLARAILRSNKILIMDEATANVDPQTDALIQKTIRKQFANCTVLTIAHRLNTIMDSDRVLVMDQGVAAEFDHPYILLSNPNSKFSSMVKETGDNMSRILFEVAKTKYESDSKTADYKDDDDK
notes: also called Sf-ABCC2 in SMALP
- binding result [3]: binds

B3: Bm-ABCC2 solubilized in 1% Triton X100 and affinity purified (C-terminal FLAG tag) (receptor)
chain: MNSDGRAGENSSAETRRKPHKPNILSRIFLWWMCPVLVKGNQRDTVEDDLIIPKKSFNSENQGEYLERYWLQEYEAAIKEKREPSLWTALRKAYWLGYMPGAIYLIIISVFRIIQPLVFAELLSYWSVEATITRLEASYYALALLGINFINMMCQHHNSLFVARFGLKVKVACSSLVYRKLLRMDQVALGDVSGGKLVNLLSNDVARFDYAFMFLHYLWVVPVQAAVVLYFLYISAGYAPFVGFFGVVILILPIQAGLTKLTSVVRRETAQRTDRRIKLMTEIINGIQVIKMYAWEKPFQAIVKVARNFEMIALRKSIFIRSVFLGFMLFTERSIIFITCLTFLLTGNLVTATLIYPIQQYISIIQINLTMILPLAIASLSEMLVSLERIQNFLVKDEREDVQITPKSYGDDNRLIFNNKASLGPQNEIIPKKYLATDGQLASTLTNEPVLSTDPAVCDYPIELSKVDATWSSSTDTSEMTLRNITLRIGRGKLCAIIGPVGSGKSSILQVLLKELPVCGGSLRINGRLSYACQESWLFPATVRENILFGLPYDSQKYHEVCKACSLLPDFKQFPYGDLSLVGERGVSLSGGQRARINLARAVYREADIYLLDDPLSAVDANVGRQLFDGCIKGYLRGRTCVLVTHQIHYLKAADIIVILNEGAIENVGSYDDLVNTGTEFSKLLTNQESNDNENGPEKNFLRAISKISTKSVEDPDNEKVQVEEEEKRAKGNLKFSVLYKYLSAVKSWFLVFLMVVTLVITQGCATFIDYWLSFWTNQVDEYEQSLAEGEEPSTSLDTQAGAFTLGVYLWTYGGVILILIVISHVRILTFVITTMRASSNFHDTVYKKLIITVMRFFDMNPSGRVLNRFSKDMGAMDEFLPRSLFETVQMYLTLCSILILNAIALPWTLIPTAVLLILFFVLLKWYLNAAQAVKRLEGTTKSPVLGMINSTLTGLSTIRSSNSQGRLLQMFDNAQNLHTSAFYTFVGGSTAFGLYLDALCLVYLGVILTIFLVIDFSTLIPVGSVGLAVSQSMVLTMMLQMAARFTADFLGQMTAVERVLEYTELPMEENMYDGSQLPKDWPTHGRIEFQNLFLNYSQEDPPVLKDLNFVIENGWKVGVVGRTGAGKSSMISALFRLYELQGHIRIDGIDTNIIAKTELRSKISIIPQEPILFSASVRYNLDPFDSYSDDEIWRALEQVELKEVIPALDYKVSEGGSNFSVGQRQLVCLARAVLRSNKILVMDEATANVDPQTDALIQTTIRREFASCTVITIAHRLNTIMDSDRVLVMDKGVVAEYDTPYALLSDPNSIFSSMVRETGDTMSKVLFRVAEDKHLGRNTEKDYKDDDDK
- binding result [4]: binds
